# T1: PYCO1 (pyrenoid component 1), recombinant, residues 31 to 592 (Phaeodactylum tricornutum)
# T1 chain: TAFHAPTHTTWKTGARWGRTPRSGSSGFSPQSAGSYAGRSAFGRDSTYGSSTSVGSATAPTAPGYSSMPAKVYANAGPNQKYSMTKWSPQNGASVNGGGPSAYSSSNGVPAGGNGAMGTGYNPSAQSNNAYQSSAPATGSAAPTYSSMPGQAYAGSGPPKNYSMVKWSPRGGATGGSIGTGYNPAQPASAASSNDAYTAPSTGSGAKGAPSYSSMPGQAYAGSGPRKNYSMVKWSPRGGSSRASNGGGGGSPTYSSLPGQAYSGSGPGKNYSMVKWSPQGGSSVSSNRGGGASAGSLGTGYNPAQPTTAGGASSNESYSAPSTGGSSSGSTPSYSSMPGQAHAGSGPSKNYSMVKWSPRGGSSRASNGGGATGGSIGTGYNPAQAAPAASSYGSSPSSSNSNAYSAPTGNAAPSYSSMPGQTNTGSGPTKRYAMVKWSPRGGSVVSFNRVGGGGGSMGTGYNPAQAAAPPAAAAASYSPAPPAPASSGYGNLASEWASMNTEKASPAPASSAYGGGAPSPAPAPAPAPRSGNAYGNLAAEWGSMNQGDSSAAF
# B1: Phaeodactylum tricornutum Rubisco (L8S8 holoenzyme) (complex)
# chain 1: MSQSVSERTRIKSDRYESGVIPYAKMGYWDAAYAVKNTDVLALFRITPQPGVDPVEAAAAVAGESSTATWTVVWTDLLTACDRYRAKAYRVDPVPNTTDQYFAFIAYECDLFEEGSLANLTASIIGNVFGFKAVSALRLEDMRIPHSYLKTFQGPATGVIVERERLNKYGIPLLGATVKPKLGLSGKNYGRVVYEGLKGGLDFLKDDENINSQPFMRWRERFLYCMEGINRASAATGETKGSYLNITAGTMEEVYKRAEYAKTVGSIVVMIDLVMGYTAIQSAAIWARDNDLILHLHRAGNSTYARQKNHGINFRVICKWMRMCGVDHIHAGTVVGKLEGDPLMIKGFYDTLLLTHLNVNLPYGIFFEMTWASLRKCMPVASGGIHCGQMHQLVHYLGDDVVLQFGGGTIGHPDGIQAGATANRVALEAMILARNEGADYFNSDIGPQILRNAAKTCGPLQTALDLWKDISFNYTSTDTSDFSVTPTANV
# chain 2: MRLTQGCFSFLPDLTDQQIEKQIAYCITKGWAMNVEWTDDPHPRNSYWELWGLPLFDVKDPASVMFELREARKSCAAGYIRINAFNAAYGTESCVMSFIVNRPSNEPGFYLERQELEGRRIAYTTKSYSVQANPEGGRY
# notes: Rubisco large subunit (LSU) of Phaeodactylum tricornutum, Form ID; Rubisco small subunit (SSU) of Phaeodactylum tricornutum, Form ID; For microscopy spiked with 0.3% or 0.6% atto-594-labeled PtRubisco; also called PtRubisco; diatom Rubisco; source: purified directly from diatoms (P. tricornutum); endogenous, soluble algal lysate (immunoprecipitation); copies: 8 + 8
# Target: T1, PYCO1 (pyrenoid component 1), …
# Experiment: co-sedimentation; heterotypic: Rubisco and PYCO1 (or variant) mixed at various ratios, 20 mM Tris-HCl pH 8.0, 150 mM NaCl; condensates sedimented and analysed
# Conditions: both partners purified
binder,measurement,value
B1,stoichiometry N,3 Rubisco (L8S8) per PYCO1

# From paper PMC10288592, “A linker protein from a red-type pyrenoid phase separates with Rubisco via oligomerizing sticker motifs” (Proceedings of the National Academy of Sciences of the …, 2023)
